This passage reports Kd results from doi:10.1101/2022.06.05.494914.

The target of this assay is PTH 1 receptor (PTH1R), his-tagged (UniProt Q03431). The experiment in a line: BLI. Background: Biolayer interferometry detects binding as a change in optical thickness at a sensor tip.
UniProt Q03431, sequence (Q03431 27-593): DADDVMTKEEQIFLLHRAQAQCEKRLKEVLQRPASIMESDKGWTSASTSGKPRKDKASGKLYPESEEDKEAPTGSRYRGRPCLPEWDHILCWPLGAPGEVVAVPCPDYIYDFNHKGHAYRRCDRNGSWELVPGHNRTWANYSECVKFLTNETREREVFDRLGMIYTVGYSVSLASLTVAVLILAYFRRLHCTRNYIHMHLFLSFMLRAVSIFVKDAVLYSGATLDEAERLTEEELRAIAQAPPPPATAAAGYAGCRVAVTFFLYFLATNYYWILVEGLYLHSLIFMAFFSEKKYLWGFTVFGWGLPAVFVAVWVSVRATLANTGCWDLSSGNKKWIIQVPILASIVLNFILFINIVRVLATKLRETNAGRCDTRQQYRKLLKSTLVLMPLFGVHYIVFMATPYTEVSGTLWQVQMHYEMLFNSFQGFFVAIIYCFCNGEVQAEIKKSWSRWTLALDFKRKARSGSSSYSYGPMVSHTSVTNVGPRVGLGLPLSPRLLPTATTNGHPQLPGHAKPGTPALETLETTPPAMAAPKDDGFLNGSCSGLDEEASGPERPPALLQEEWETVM

What is called Kd is the free concentration of one partner at which half of the binding sites on the other are occupied at equilibrium, for simple one-to-one binding. The low end stands for tighter binding, the high end for weaker binding. As to PTH-Fc fusion protein, the Kd is 2.3 µM.
Substance “Parathyroid Hormone PTH (1-34) (peptide)” gave an equilibrium dissociation constant (Kd) of 2.31 µM.
